According to patent publication US12624097B2, “Nucleic acids, vectors, and cells that encode anti-Sp17 antibodies and other Sp17 binding proteins” (Medicovestor, Inc., priority 2023, dated 2026):
Entries after “also recorded” stand apart in the source; their conditions may differ.

What was measured:
[1] = target: T1, Sp17 protein (Homo sapiens, UniProt Q15506); assay: Western blot detection of Sp17 protein; assay type: binding
T1 sequence (Q15506 1-151): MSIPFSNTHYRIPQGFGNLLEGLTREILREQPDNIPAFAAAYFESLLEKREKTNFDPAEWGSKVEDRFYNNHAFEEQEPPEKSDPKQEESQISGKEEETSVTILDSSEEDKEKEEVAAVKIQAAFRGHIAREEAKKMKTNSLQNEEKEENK
Description: The nucleotide sequences encoding the VH and VL regions of Example 1 were cloned into a […] heavy chain gene and a mouse kappa light chain gene, respectively, and expressed in CHO-S cells to produce a mouse-human chimeric antibody, which was named chAB2. Successful generation of the antibody was confirmed by SDS-PAGE and western blotting using anti-mouse heavy and light chain antibodies and recombinant Sp17 protein (FIGS. 2 & 3).
The VH and VL nucleotide sequences of Example 1 were cloned into a human IgG4 heavy chain gene and a human kappa light chain gene, respectively. A Ser228Pro mutation was introduced in the heavy chain to reduce non-specific Fc receptor gamma binding. The resultant antibody was named SP17-AB2. Successful cloning was confirmed by sequence analysis. The amino acid sequences of the heavy chain and light chain are shown in Table 4, and the Ser228Pro mutation is underlined in SEQ ID NO: 11.

[2] = tested on: 33 normal human tissues; assay: Immunohistochemistry on a normal tissue microarray (specificity); conditions: 33 normal tissues, 2-3 human donors per tissue
Protocol: The specificity of the chAB2 antibody for Sp17 was determined with immunohistochemistry on a normal tissue microarray, which consisted of 33 normal tissues obtained from 2-3 human donors per tissue. The normal tissues included brain, eye, adrenal gland, hypophyseal, thyroid, parathyroid, tonsil, thymus, spleen, heart, lung, larynx, esophagus, stomach, small intestine, colon, liver, pancreas, salivary gland, kidney, bone, skeletal, skin, peripheral nerve, mesothelial, breast, ovary, endometrium, cervix, testis, and prostate.

B1: chAB2: mouse-human chimeric anti-Sp17 monoclonal antibody; human VH/VL (SEQ ID NO: 3, 4) with mouse IgG2a heavy and mouse kappa light chain (antibody, V domains shown)
VH: QVQLQQSGAEVKKPGSSVKVSCKASGGTFSSYAISWVRQAPGQGLEWMGRIIPILGIANYAQKFQGRVTITADKSTSTAYMELSSLRSEDTAVYYCARPSEEVVAAYGAFDIWGQGTTVTVSS
VL: EIVLTQSPLSLPVRPGEPASISCRASQSLLRSDGFNYLDWYLQKPGQSPQLLVYLGSNRASGVPDRFSGSGSGTDFTLKISRVEAEDVGVYYCMQAVQTPYIFGQGTKLEIK
modifications: mouse IgG2a heavy and mouse kappa constant regions
[1]
  binding to Sp17 protein by western blot: Sp17 protein was detected
[2]
  binding to normal tissues (cross-reactivity): bound to testis and did not bind to normal tissues; also recorded: lack detectable cross-reactivity
